Measurements reported in PMC9156758.

Legend:
[1] = target: A2ML1-CC (TEV-P-cleaved A2ML1t with covalently conjugated TEV-P) (human | tobacco etch virus) (UniProt A8K2U0); experiment: cryo-EM structure; TEV-P-cleaved A2ML1t samples on grids; monomers and dimers separated by 2D classification, multi-class ab initio reconstruction and heterogeneous refinement
[2] = target: TEV-P-cleaved A2ML1t prepared in the presence of BAPN, without conjugated TEV-P (human) (UniProt A8K2U0); experiment: as above

Chain of TEV-P-cleaved A2ML1t prepared in the presence of BAPN, without conjugated TEV-P (A8K2U0 19-1454): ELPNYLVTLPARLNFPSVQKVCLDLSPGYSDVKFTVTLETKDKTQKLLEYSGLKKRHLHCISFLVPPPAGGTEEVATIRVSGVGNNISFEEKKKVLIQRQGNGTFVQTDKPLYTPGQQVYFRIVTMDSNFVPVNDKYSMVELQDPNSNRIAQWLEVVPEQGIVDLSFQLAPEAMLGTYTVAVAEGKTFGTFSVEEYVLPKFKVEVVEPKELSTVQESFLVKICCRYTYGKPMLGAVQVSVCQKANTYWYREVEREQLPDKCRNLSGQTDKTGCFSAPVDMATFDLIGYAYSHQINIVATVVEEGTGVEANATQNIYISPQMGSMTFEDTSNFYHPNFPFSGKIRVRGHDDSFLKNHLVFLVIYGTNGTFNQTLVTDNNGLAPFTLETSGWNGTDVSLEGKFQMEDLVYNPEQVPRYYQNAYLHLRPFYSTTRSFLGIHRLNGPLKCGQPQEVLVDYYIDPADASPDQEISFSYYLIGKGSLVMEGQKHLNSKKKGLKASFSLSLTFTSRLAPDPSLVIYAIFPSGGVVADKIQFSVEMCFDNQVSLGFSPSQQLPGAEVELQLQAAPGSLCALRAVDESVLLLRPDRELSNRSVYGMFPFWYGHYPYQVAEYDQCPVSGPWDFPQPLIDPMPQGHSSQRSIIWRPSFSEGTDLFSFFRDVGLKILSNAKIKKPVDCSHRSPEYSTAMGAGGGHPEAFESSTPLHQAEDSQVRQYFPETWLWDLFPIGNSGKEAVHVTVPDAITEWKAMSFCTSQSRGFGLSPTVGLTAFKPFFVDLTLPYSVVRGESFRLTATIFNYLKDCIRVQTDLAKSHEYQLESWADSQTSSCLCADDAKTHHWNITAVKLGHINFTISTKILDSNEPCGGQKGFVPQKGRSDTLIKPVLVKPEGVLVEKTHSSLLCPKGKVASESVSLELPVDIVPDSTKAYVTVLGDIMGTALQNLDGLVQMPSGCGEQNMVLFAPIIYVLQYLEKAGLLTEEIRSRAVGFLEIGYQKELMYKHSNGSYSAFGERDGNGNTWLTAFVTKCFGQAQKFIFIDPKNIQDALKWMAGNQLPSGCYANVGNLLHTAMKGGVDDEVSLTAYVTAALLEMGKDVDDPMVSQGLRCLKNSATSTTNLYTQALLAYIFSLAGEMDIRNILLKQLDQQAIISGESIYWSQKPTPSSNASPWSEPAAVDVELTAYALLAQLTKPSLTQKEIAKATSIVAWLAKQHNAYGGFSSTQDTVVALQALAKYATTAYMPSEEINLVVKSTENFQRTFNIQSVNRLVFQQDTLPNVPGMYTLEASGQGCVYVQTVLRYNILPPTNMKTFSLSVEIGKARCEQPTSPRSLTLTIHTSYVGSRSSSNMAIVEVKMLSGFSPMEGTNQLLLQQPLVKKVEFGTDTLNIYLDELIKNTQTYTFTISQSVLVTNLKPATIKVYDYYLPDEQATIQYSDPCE
Chain of TEV-P-cleaved A2ML1t prepared in the presence of BAPN, without conjugated TEV-P (A8K2U0 19-1454): as above
Chain of A2ML1-CC (TEV-P-cleaved A2ML1t with covalently conjugated TEV-P) (A8K2U0 whole entry, looked up, one chain of several): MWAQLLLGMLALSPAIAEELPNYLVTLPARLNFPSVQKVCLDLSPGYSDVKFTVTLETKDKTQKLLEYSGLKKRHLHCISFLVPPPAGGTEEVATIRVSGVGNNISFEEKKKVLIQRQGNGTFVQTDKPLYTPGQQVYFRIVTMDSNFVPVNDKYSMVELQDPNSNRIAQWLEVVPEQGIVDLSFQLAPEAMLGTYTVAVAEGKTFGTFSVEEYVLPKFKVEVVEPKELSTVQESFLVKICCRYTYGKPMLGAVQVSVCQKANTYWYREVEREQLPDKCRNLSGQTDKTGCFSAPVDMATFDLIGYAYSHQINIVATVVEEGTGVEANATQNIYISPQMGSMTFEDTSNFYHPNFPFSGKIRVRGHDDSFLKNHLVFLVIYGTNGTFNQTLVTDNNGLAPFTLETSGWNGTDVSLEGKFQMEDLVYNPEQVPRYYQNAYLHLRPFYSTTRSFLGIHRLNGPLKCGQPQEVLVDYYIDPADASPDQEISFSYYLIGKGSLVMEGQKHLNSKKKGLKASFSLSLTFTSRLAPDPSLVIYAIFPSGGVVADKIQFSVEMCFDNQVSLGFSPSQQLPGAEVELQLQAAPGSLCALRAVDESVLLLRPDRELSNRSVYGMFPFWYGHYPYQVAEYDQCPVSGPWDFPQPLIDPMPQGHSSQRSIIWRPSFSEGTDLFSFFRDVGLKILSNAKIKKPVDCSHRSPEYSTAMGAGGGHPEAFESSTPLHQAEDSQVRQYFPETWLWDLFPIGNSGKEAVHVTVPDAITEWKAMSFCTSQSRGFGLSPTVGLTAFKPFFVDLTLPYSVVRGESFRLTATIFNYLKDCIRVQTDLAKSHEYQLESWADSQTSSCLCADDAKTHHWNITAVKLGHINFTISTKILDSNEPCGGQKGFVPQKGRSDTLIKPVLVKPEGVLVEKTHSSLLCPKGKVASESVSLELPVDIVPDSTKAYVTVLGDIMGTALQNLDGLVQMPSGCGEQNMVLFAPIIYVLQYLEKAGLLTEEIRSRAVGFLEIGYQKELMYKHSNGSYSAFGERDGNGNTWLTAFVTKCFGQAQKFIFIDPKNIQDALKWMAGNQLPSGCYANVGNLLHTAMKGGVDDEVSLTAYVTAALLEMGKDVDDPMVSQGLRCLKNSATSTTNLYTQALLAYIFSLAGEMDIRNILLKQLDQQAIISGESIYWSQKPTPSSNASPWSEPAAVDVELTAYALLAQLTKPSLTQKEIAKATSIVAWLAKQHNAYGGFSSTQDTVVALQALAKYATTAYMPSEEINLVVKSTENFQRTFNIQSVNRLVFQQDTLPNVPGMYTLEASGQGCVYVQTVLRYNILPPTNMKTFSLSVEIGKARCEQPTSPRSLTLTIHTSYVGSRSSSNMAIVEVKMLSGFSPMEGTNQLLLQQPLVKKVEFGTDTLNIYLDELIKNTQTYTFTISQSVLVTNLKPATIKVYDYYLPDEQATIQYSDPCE

Row | Substance | fraction of picked particles that were dimers (fraction of particles) [1] | fraction of picked particles that were dimers (fraction of particles) [2] | stoichiometry N [2]
1 | A2ML1-CC (TEV-P-cleaved A2ML1t with covalently conjugated TEV-P) (from UniProt A8K2U0 19-1454; A8K2U0 19-1454) (complex) | 0.167 | – | –
2 | TEV-P-cleaved A2ML1t prepared in the presence of BAPN, without conjugated TEV-P (from UniProt A8K2U0 19-1454; A8K2U0 19-1454) | – | 0.167 | 2
